{
  "source": "patent US20180224459A1",
  "key": {"[1]": {"biological_target": "BC2T-mSA2-myc displayed on E. coli as a fusion to OmpX", "assay": "flow cytometry, induced E. coli displaying BC2T-mSA2-myc; co-treatment with Myc-ab-FITC; mean of triplicate"}, "[2]": {"biological_target": "HA-mSA2-BC2T-myc fusion displayed on yeast at the C-terminus of Aga2 (yeast) (UniProt P32781)", "assay": "flow cytometry, induced yeast displaying HA-mSA2-BC2T-myc; co-treatment with HA-ab-FITC; mean of triplicate"}, "[3]": {"biological_target": "BC2T-mSA2-myc displayed on E. coli as a fusion to OmpX", "assay": "flow cytometry, induced E. coli displaying BC2T-mSA2-myc; mean of triplicate"}, "[4]": {"biological_target": "HA-mSA2-BC2T-myc fusion displayed on yeast at the C-terminus of Aga2 (yeast) (UniProt P32781)", "assay": "flow cytometry, induced yeast displaying HA-mSA2-BC2T-myc; mean of triplicate"}, "[5]": {"biological_target": "HA-mSA2-BC2T-myc fusion displayed on yeast at the C-terminus of Aga2 (yeast) (UniProt P32781)", "assay": "flow cytometry, induced yeast displaying HA-mSA2-BC2T-myc; co-treatment with Myc-ab-FITC; mean of triplicate"}, "[6]": {"biological_target": "Green Fluorescent Protein (GFP), biotinylated and immobilized on streptavidin coated plates [GFP: P42212]", "assay": "competition ELISA on immobilized GFP; 1:1 mixture with GFPnb-BC2T as competitor, against GFPnb-BC2T alone; BC2nb-nLuc read-out"}},
  "data": [
    {"substance": "BC2 nanobody-Cy5 conjugate (VHH)", "values": [
      {"measurement": "Cy5 (+)", "setting": "[1]", "value": 98.7, "unit": "%"},
      {"measurement": "Cy5 (+)", "setting": "[2]", "value": 71.2, "unit": "%"},
      {"measurement": "Cy5 (+)", "setting": "[3]", "value": 98.6, "unit": "%"},
      {"measurement": "Cy5 (+)", "setting": "[4]", "value": 71.1, "unit": "%"},
      {"measurement": "Cy5 (+)", "setting": "[5]", "value": 70.9, "unit": "%"}
    ]},
    {"substance": "BC2 nanobody-GFP fusion protein (from UniProt P42212 1-238) (VHH)", "values": [
      {"measurement": "FITC or GFP (+)", "setting": "[3]", "value": 98.1, "unit": "%"},
      {"measurement": "FITC or GFP (+)", "setting": "[4]", "value": 59.6, "unit": "%"}
    ]},
    {"substance": "GFP-binding nanobody-His6 fusion protein (VHH)", "values": [
      {"measurement": "decrease in luminescence", "setting": "[6]", "value": 50, "unit": "%"}
    ]}
  ]
}
